PMC7010293
Several values for one entry are separate records, joined by “and”; a condition that tells them apart may be missing. Equal entries are not always repeated.

How the values were obtained:
Experiment in all cases: SDS-PAGE under unheated, non-reducing conditions with Western blot
[1] = molecular target: recombinant non-structural protein 1 (rNS1) of Dengue virus serotype 1, 6xHis-tagged (Dengue virus 1, Hawaii A strain)
[2] = molecular target: recombinant non-structural protein 1 (rNS1) of Dengue virus serotype 2, 6xHis-tagged (Dengue virus 2, New Guinea C strain)
[3] = molecular target: recombinant non-structural protein 1 (rNS1) of Dengue virus serotype 3, 6xHis-tagged (Dengue virus 3, Sri Lanka strain)
[4] = molecular target: recombinant non-structural protein 1 (rNS1) of Dengue virus serotype 4, 6xHis-tagged (Dengue virus 4, TC25 strain)
[5] = molecular target: recombinant non-structural protein 1 (rNS1) of Tick-borne encephalitis virus, 6xHis-tagged (Tick-borne encephalitis virus, Neudoerfl strain)
[6] = molecular target: recombinant non-structural protein 1 (rNS1) of West Nile virus, RQ10NK, 6xHis-tagged (West Nile virus, NY99 strain)
[7] = molecular target: recombinant non-structural protein 1 (rNS1) of Zika virus, 6xHis-tagged (Zika virus, SPH2015 strain)

Substance: recombinant non-structural protein 1 (rNS1) of Dengue virus serotype 1, 6xHis-tagged (natural protein)
- stoichiometry N [1]: 2

Substance: recombinant non-structural protein 1 (rNS1) of Dengue virus serotype 2, 6xHis-tagged (natural protein)
- stoichiometry N [2]: 2

Substance: recombinant non-structural protein 1 (rNS1) of Dengue virus serotype 3, 6xHis-tagged (natural protein)
- stoichiometry N [3]: 2

Substance: recombinant non-structural protein 1 (rNS1) of Dengue virus serotype 4, 6xHis-tagged (natural protein)
- stoichiometry N [4]: 2

Substance: recombinant non-structural protein 1 (rNS1) of Tick-borne encephalitis virus, 6xHis-tagged (natural protein)
- stoichiometry N [5]: 2 and 6

Substance: recombinant non-structural protein 1 (rNS1) of West Nile virus, RQ10NK, 6xHis-tagged (natural protein)
- stoichiometry N [6]: 2

Substance: recombinant non-structural protein 1 (rNS1) of Zika virus, 6xHis-tagged (natural protein)
- stoichiometry N [7]: 2
